Experimental data reported in patent publication US8030048B2, “Enantioselective epoxide hydlrolase and method for preparing and enantiopure epoxide using the same” (Korea Ocean Research and Development Institute, priority 2005, dated 2011).

Columns and labels:
[1] = biological target: T1, Erythrobacter litoralis HTCC2594 epoxide hydrolase rEEH1 (EEH1), SEQ ID NO: 13 (Erythrobacter litoralis, UniProt Q2NAV3); test: Kinetic parameters of purified rEEH1 by GC analysis with (R)- or (S)-styrene oxide; assay type: biochemical; conditions: 100 mM potassium phosphate pH 8.0, 30° C.
T1 construct: microsomal-EH-like
T1 sequence (Q2NAV3 1-373): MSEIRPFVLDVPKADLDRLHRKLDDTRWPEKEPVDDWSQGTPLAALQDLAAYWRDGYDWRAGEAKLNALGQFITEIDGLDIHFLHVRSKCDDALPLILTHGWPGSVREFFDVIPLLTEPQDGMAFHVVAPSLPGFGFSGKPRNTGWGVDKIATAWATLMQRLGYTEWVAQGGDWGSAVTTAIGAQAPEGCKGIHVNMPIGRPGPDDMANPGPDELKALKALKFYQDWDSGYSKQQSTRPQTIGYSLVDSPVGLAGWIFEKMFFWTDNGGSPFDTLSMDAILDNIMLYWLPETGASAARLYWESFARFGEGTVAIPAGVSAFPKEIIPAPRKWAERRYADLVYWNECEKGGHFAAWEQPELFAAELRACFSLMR
Description: (§1) Kinetic parameters of the rEEH1, rEEH2, rEEH3, sEEH, nEEH, and rEEH were determined by a GC analysis using (R)- or (S)- styrene oxide substrate. 100 ul of purified EHases were mixed with various concentrations of (R)- or (S)- styrene oxide in a 10 ml tube containing 1 ml of potassium phosphate buffer (100 mM, pH 8.0), and shake-incubated at 200 rpm and a temperature of 30° C. The extraction mixtures were extracted with 2 ml of hexane, and enantiomeric excess [ee; ee=100×(S−R)/(S+R)] toward enantiopure styrene oxide was analyzed with a chiraldex gamma-cyclodextrin trifluoroacetyl(G-TA) capillary GC column. Wherein, the FIG. 8 was diagramed with GC analysis for the hydrolyzing activities of enantioselective EHases (rEEH1, rEEH2, and rEEH3) toward racemic styrene oxide.
(§2) Kinetic parameters were estimated by non-linear regression analysis using a Sigma Plot program, and various substrates as depicted in FIG. 1 were also tested for the enantioselective hydrolyzing activity by rEEH1, rEEH2, rEEH3, sEEH, nEEH, and rEEH.

[2] = Kinetic parameters of purified EHases by GC analysis, (R)-styrene oxide; assay type: biochemical; conditions: (R)-enantiomer of styrene oxide, Table 5
Description: as §1, §2

[3] = Enantioselective hydrolyzing activity of purified EHases toward EF; assay type: biochemical
Description: as §1, §2

[4] = Enantioselective hydrolyzing activity of purified EHases toward EX; assay type: biochemical
Description: as §1, §2

[5] = Effects of pH and temperature on the EHase activity of rEEH1, rEEH2 and rEEH3; assay type: biochemical
Description: The effect of pH on the EHase activity was measured with 50 mM sodium acetate-acetic acid buffer (pH 4.0 and 6.0), 50 mM MES buffer (pH 6.0 to 7.0), 50 mM Phosphate buffer (pH 7.0 to 9.0), and 50 mM Glycine buffer (pH 9.0 and 10.0), and the optimum reaction temperature on the EHase activity was measured over a temperature of range from 10 to 70° C. at pH 7.5.

[6] = Enantioselective hydrolyzing activity of purified EHases toward EB; assay type: biochemical
Description: as §1, §2

[7] = Substrate selectivity of rEEH1, rEEH2 and rEEH3 toward various epoxide substrates; assay type: biochemical; conditions: purified enzyme
Description: Also, the substrate selectivity of rEEH1, rEEH2 and rEEH3 toward various epoxide substrates depicted in FIG. 1 was same to Table 4.
as §2

[8] = substrate: c1ccc([C@H]2CO2)cc1; test: Kinetic parameters of purified rEEH1 by GC analysis with (R)- or (S)-styrene oxide; assay type: biochemical, Erythrobacter litoralis HTCC2594; conditions: other: 100 mM potassium phosphate pH 8.0, 30° C.
Description: as §1, §2

[9] = substrate: c1ccc([C@@H]2CO2)cc1; test: as above; assay type: biochemical, Erythrobacter litoralis HTCC2594; conditions: other: 100 mM potassium phosphate pH 8.0, 30° C.
Description: as §1, §2

[10] = Enantioselective hydrolyzing activity of purified EHases toward SO; assay type: biochemical
Description: as §1, §2

[11] = Enantioselective hydrolyzing activity of purified EHases toward GPE; assay type: biochemical
Description: as §1, §2

[12] = Kinetic parameters of purified EHases by GC analysis, (S)-styrene oxide; assay type: biochemical; conditions: (S)-enantiomer of styrene oxide, Table 5
Description: as §1, §2

c1ccc([C@H]2CO2)cc1 [(S)-styrene oxide]
Vmax [1]: 1.18 µmol/min

c1ccc([C@@H]2CO2)cc1 [(R)-styrene oxide]
Vmax [1]: 2.3 µmol/min

B1: Erythrobacter litoralis HTCC2594 epoxide hydrolase rEEH1 (EEH1), SEQ ID NO: 13 (Erythrobacter litoralis HTCC2594) (protein)
chain: MSEIRPFVLDVPKADLDRLHRKLDDTRWPEKEPVDDWSQGTPLAALQDLAAYWRDGYDWRAGEAKLNALGQFITEIDGLDIHFLHVRSKCDDALPLILTHGWPGSVREFFDVIPLLTEPQDGMAFHVVAPSLPGFGFSGKPRNTGWGVDKIATAWATLMQRLGYTEWVAQGGDWGSAVTTAIGAQAPEGCKGIHVNMPIGRPGPDDMANPGPDELKALKALKFYQDWDSGYSKQQSTRPQTIGYSLVDSPVGLAGWIFEKMFFWTDNGGSPFDTLSMDAILDNIMLYWLPETGASAARLYWESFARFGEGTVAIPAGVSAFPKEIIPAPRKWAERRYADLVYWNECEKGGHFAAWEQPELFAAELRACFSLMR
notes: microsomal-EH-like
kcat Km [2]: 16300 M⁻¹ s⁻¹
Hydrolysis rate EF (R) ([3]; (R)-enantiomer): 4.00 (×10^−2) mg/min
Hydrolysis rate EF (S) ([3]; (S)-enantiomer): 15.0 (×10^−2) mg/min
Hydrolysis rate EX (R) ([4]; (R)-enantiomer): 7.00 (×10^−2) mg/min
Hydrolysis rate EX (S) ([4]; (S)-enantiomer): 8.00 (×10^−2) mg/min
optimum temperature (maximum hydrolysis rate) ([5]; 10 to 70° C. at pH 7.5): 50 °C
optimum pH ([5]; activity toward styrene oxide, pH 4.0 to 10.0): 6.5
Hydrolysis rate EB (R) ([6]; (R)-enantiomer): 15.0 (×10^−2) mg/min
Hydrolysis rate EB (S) ([6]; (S)-enantiomer): 15.0 (×10^−2) mg/min
substrate selectivity, in words [7]: hydrolyzed enantioselectively toward monosubstituted epoxides with bulky ring at C-1 position
Km [8]: 2300 µM
kcat [8]: 24.5 s⁻¹
Km [9]: 2900 µM
Vmax [9]: 2.3 µmol/min
kcat [9]: 49.1 s⁻¹
Hydrolysis rate SO (R) ([10]; (R)-enantiomer): 28.0 (×10^−2) mg/min
Hydrolysis rate SO (S) ([10]; (S)-enantiomer): 9.00 (×10^−2) mg/min
enantiomer preference in hydrolysis of styrene oxide, in words ([10]; purified enzyme): (R)-styrene oxide was hydrolyzed faster than (S)-styrene oxide
Hydrolysis rate GPE (R) ([11]; (R)-enantiomer): 11.0 (×10^−2) mg/min
Hydrolysis rate GPE (S) ([11]; (S)-enantiomer): 20.0 (×10^−2) mg/min
kcat Km [12]: 10600 M⁻¹ s⁻¹
